Reference: US20240335548A1, “MACROMOLECULES” (Starpharma Pty Ltd, priority 2011, published 2024)
Where two headings read alike, the source gives them in different places.

Columns and labels:
[1] = Water solubility study on drug loaded dendrimers; format: physicochemical
Protocol: Protocol: To 30 mg of dendrimer (freeze-dried from water) was added 100 μL of deionised water. After mixing for 10 minutes, additional aliquots of water (10-30 μL per addition) were added with vortexing and incubation for 10 mins until full dissolution was obtained. This amount is represented in Table 1 as the water solubility of the dendrimer. The equivalent drug solubility is determined by multiplying the % drug loading/100 and is represented in Table 1 (column 3) as Equivalent drug solubility on dendrimer. Finally, the fold increase is obtained by dividing the Equivalent drug solubility on dendrimer by the solubility of the drug and is represented in Table 1 (column 4).

[2] = Plasma stability study: docetaxel release in mouse plasma; format: in vitro ADME; conditions: 37° C.
Protocol: Protocol: To 0.5 mL of mouse plasma was added 0.1 mL of dendrimer solution (2 mg/mL, drug equivalent in saline). The mixtures were vortexed (30 s) then incubated at 37° C. At various timepoints (0.5, 2.5, 4.5, 22 hours) 0.1 mL aliquots were removed and added to 0.2 mL ACN. The resulting mixtures were vortexed (30 s), centrifuged (10 min, 4° C.) filtered and analysed by HPLC (C8, 3.9×150 mm, 5 μm, wavelength=243 nm, 10 μL injections, gradient: 40-80% ACN/H2O (1-7 min), 80% ACN (7-9 min), 80-40% ACN (9-11 min), 40% ACN (11-15 min), 10 mM ammonium formate, pH 7.40) which when compared against a standard (2 mg//mL) provided the concentration of free docetaxel in the sample.

ES2 (Ovarian) = assay: Cell growth inhibition SRB assay; format: cell-based
Protocol: (§1) All solutions were prepared in saline (except docetaxel which was made in ethanol). All solutions were stored at −20° C. All values were based on the equivalent drug loading.

H460 (Lung) = assay: Cell growth inhibition SRB assay; format: cell-based
Protocol: as §1

PC-3 (Prostate) = assay: Cell growth inhibition SRB assay; format: cell-based
Protocol: as §1

A2780 = assay: IC50 using the MTT assay; format: cell-based; conditions: 72 hours
Protocol: (§2) The IC50 using the MTT assay [Wilson, Anne P. (2000). “Chapter 7: Cytotoxicity and viability”. In Masters, John R. W. Animal Cell Culture: A Practical Approach. Vol. 1 (3rd ed.). Oxford: Oxford University Press] was determined against various cancer cell lines after 72 hours.

A549 = assay: IC50 using the MTT assay; format: cell-based; conditions: 72 hours
Protocol: as §2

DU-145 = assay: IC50 using the MTT assay; format: cell-based; conditions: 72 hours
Protocol: as §2

H460 = assay: IC50 using the MTT assay; format: cell-based; conditions: 72 hours
Protocol: as §2

HCT-116 = assay: IC50 using the MTT assay; format: cell-based; conditions: 72 hours
Protocol: as §2

HT-29 = assay: IC50 using the MTT assay; format: cell-based; conditions: 72 hours
Protocol: as §2

MCF-7 = assay: IC50 using the MTT assay; format: cell-based; conditions: 72 hours
Protocol: as §2

PC-3 = assay: IC50 using the MTT assay; format: cell-based; conditions: 72 hours
Protocol: as §2

[3] = equivalent drug solubility divided by solubility of the drug
[4] = water solubility x % drug loading/100
[5] = deionised water, until full dissolution
[6] = ES2, 72 hours, equivalent drug loading, average of duplicate
[7] = H460, 72 hours, equivalent drug loading, average of duplicate
[8] = PC-3, 72 hours, equivalent drug loading, average of duplicate

Substance	Water solubility of dendrimer [1] [mg/mL]	Fold increase in drug solubility [1, 3]	Equivalent drug solubility on dendrimer [1, 4] [mg/mL]	Docetaxel release in plasma ([2]; 0.5 hours)	Docetaxel release in plasma ([2]; 2.5 hours)	Docetaxel release in plasma ([2]; 22 hours)	GI50 (ES2 (Ovarian); [6]) [nM]	GI50 (H460 (Lung); [7]) [nM]	GI50 (PC-3 (Prostate); [8]) [nM]	further results
BHALys[Lys]32[α-Glu-PTX]32[ε-PEG2300]32 [Example 12]	15	10000	3	–	–	–	–	–	–	–
BHALys[Lys]32[α-Glu-Testosterone]32[ε-PEG570]32 [Example 23]	>125	–	–	–	–	–	–	–	–	Equivalent drug solubility on dendrimer [1]: 26.6 mg/mL; Fold increase in drug solubility [1]: 1109
BHALys[Lys]32[α-Glu-Testosterone]32[ε-PEG1100]32 [22 (b)]	>89	–	–	–	–	–	–	–	–	Equivalent drug solubility on dendrimer [1]: 14.7 mg/mL; Fold increase in drug solubility [1]: 610
BHALys[Lys]32[α-MIDA-DTX]32[ε-PEG1100]32 [6 (b)]	–	6400	32	7.5 percentage of total docetaxel	9 percentage of total docetaxel	23.5 percentage of total docetaxel	–	–	–	Water solubility of dendrimer [1, 5]: 100 mg/mL; GI50 (ES2 (Ovarian)): 12.5 nM; GI50 (H460 (Lung)): 11 nM; GI50 (PC-3 (Prostate)): 10.5 nM
BHALys[Lys]32[α-PDT-DTX]32[ε-PEG1100]32 [9 (b)]	–	–	–	–	–	–	888	365	618	–
BHALys[Lys]32[α-PEG2-DTX]32[ε-PEG1100]32 [10 (b)]	–	–	–	–	–	–	10.5	6.5	9.5	–
BHALys[Lys]32[α-PEG1100]32[ε-TDA-DTX]32 [Example 18]	–	–	–	–	–	–	–	–	–	IC50 (A2780): 5.7 nM; IC50 (A549): 20.3 nM; IC50 (DU-145): 11.6 nM; IC50 (H460): 7.5 nM; IC50 (HCT-116): 2.9 nM; IC50 (HT-29): 1.8 nM; IC50 (MCF-7): 3.3 nM; IC50 (PC-3): 5.9 nM
BHALys[Lys]32[α-PSSP-DTX]32[ε-PEG1100]32 [2 (b)]	57	2800	14	5 percentage of total docetaxel	8 percentage of total docetaxel	15.5 percentage of total docetaxel	116	73	110	–
BHALys[Lys]32[α-o-PDA-DTX]32[ε-PEG1100]32 [7 (b)]	–	5000	25	20.5 percentage of total docetaxel	32 percentage of total docetaxel	71.5 percentage of total docetaxel	–	–	–	Water solubility of dendrimer [1, 5]: 91 mg/mL; GI50 (ES2 (Ovarian)): 8 nM; GI50 (H460 (Lung)): 4.5 nM; GI50 (PC-3 (Prostate)): 6.5 nM
